Strand notation (5' to 3'): a small letter for the sugar, then the base; units joined by * are phosphorothioate-linked, units joined directly phosphodiester-linked; [ ] holds rarer units or linkages, { } end groups; capitals alone tell only the bases. m = 2'-O-methyl; r = 2'-OH (RNA)

Data set [1] relates to Hepatitis B virus. The data set can be described thus: HBV minicircle (HBVcircle) mouse model: serum HBsAg, HBeAg, HBV DNA after LNP injection. The class given is in vivo. The text has this:
Having established the efficacy of these base editing reagents in vitro, experiments were then undertaken to evaluate these same base editing reagents for antiviral efficacy in vivo using the HBV minicircle mouse model. […] After establishing HBV viral replication, hepatic delivery of the base editing reagents was achieved via systemic administration of lipid nanoparticles (LNPs) formulated with the following base editing reagents: CBE mRNA and HBV-targeting gRNAs (e.g., gRNA37 and gRNA40 (see Table 1)). The mice were administered a combination of base editors, where the combination was either gRNA37 and gRNA40 or gRNA37-HM and gRNA40-HM. The guides gRNA37-HM and gRNA40-HM each included heavily modified(HM) scafolds (see Table 1).
Table 23 below provides a summary of the experimental design used to evaluate the base editing reagents in vivo. The mice contained an HBVcircle polynucleotide that enabled HBV replication in vivo. See, for example Yan et al., J. Hepatol 2017 66:1149-1157 for a description of an exemplary mouse model. The mice were administered lipid nanoparticles (BL4 LNP) containing mRNA encoding BE4 (a cytidine base editor) and either the guide RNAs gRNA37 and gRNA40 or the guide RNAs gRNA37-HM and gRNA-40-HM containing a scaffold with heavy modifications (HM). […] HBsAg, HbeAg, and HBV DNA levels in serum were measured weekly (FIGS. 24A-24C and 25A-25C). […]

Data set [2] concerns Hepatitis B virus. The data set can be described thus: Antiviral efficacy in HBV-infected primary human hepatocytes (HBV-PHH): HBsAg, HBeAg, HBV DNA, 3.5 kb RNA, rebound. In kind it is cell-based. The settings on record: HBV-PHH system, guide RNA + mRNA encoding base editor. From the text:
(§1) Base editor systems comparing guide RNAs evaluated in Example 1 were subsequently tested for anti-viral and editing efficacy using the Hepatitis B virus-primary human hepatocyte (HBV-PHH) system. Cells were transfected with the guide RNAs and mRNAs encoding the base editor as described in Example 1. […] Guide RNAs ABE-133, MSPbeam94, and ABE-85 were associated with a 70-80% reduction of HBV DNA as compared to controls. The guide RNAs PolyA-NGC1 and PolyA-NGC2 were associated with high editing followed by 90% efficacy in reduction of HbeAg.
The HBV-PHH system for studying the Hepatitis B virus is described, for example, by Winer, et al., “Long-term hepatitis B infection in a scalable hepatic co-culture system,” Nat. Commun. 8:125 (2017) and by Zhou, et al. “Long-term maintenance of human fetal hepatocytes and prolonged susceptibility to HBV infection by co-culture with non-parenchymal cells,” J. Virol Methods, 195:185-93 (2014); and is provided commercially by ImQuest BioSciences (imquestbio.com/programs/virology/hbv/)).
(§2) The design of the experiments is described schematically in FIG. 14. Primary human hepatocyte (PHH) cells were infected with HBV at day 0. At days 4 and 11, the cells were transfected with mRNA encoding BE4 and with gRNA37 and gRNA40. Measurements of HBV DNA were taken over time, and measurements of HBsAg, HBeAG, HBV total DNA, 3.5 kb RNA, and cccDNA editing were taken at day 25. The experiments were carried out using a PHH co-culture system available from PhoenixBio. The PHH co-culture system maintained hepatocyte differentiation and metabolic activity for over 30 days. The HBV infection in the cells was persistent and a cccDNA level was maintained.
(§3) The design of the experiments is described schematically in FIG. 18. Primary human hepatocyte (PHH) cells were infected with HBV at day 0, at day 4 an 8-day. Treatment with lamivudine commenced (which included a 3-day pretreatment period within the 8-day total), and cells were transfected with mRNA encoding BE4 and the gRNAs gRNA37 and gRNA40 at days 7 and 14. HBV DNA levels were measured over time, and additional HBV markers were measured at day 21.
(§4) Primary hepatocytes (PHH) co-cultures infected with HBV were used to test antiviral efficacy of base editing systems. Primary hepatocyte co-culture (PHH) infected with HBV virus is a clinically relevant system for assessing anti-viral activity of base editing systems. The base editing reagents (mRNA encoding a base editor(s) and synthetic gRNA) were transfected via lipofection twice over the course of two weeks. The first transfection was performed about 3, 4, or 7 days after infection (days post infection (dpi)). Not being bound by theory, this 3-to-7-day period ensured that the cccDNA was completely formed at the time of the transfection. The second transfection was at about 7, 10, 11, or 14 days after infection. Extracellular parameters (e.g., HBsAg, HBeAg, and HBV DNA) were monitored over the course of the experiment (including the end of the experiment) and intracellular parameters (HBV DNA, viral RNA, and editing) were measured at the end of the experiment. Cells were lysed at the termination of the experiment (e.g., at 15, 17, 21, or 25 days).
(§5) Transfection details: RNA format, 800 ng total RNA per well in a 24 well plate (600 ng base editor-encoding mRNA+200 ng gRNA) transfected via lipofection (lipofectamin messengerMax, thermofisher Scientific) according to the vendor protocol.

In the next data set the test system is HBV cccDNA. The data set can be described thus: Base editing of HBV cccDNA in primary human hepatocytes (HBV-PHH). The class given is cell-based, Hepatitis B virus. The settings on record: HBV-PHH system.
Excerpt: as §1
Having identified gRNA37 and gRNA40 as effective gRNAs, the antiviral efficacy of a base editor system containing BE4, gRNA37 and gRNA40 (i.e., multiplexing gRNAs) was evaluated, FIGS. 8-10. It was determined that the base editor system multiplexed with the two gRNAs was associated with a reduction of HBV viral parameters in HepG2-NTCP cells, see FIG. 9. […] For the evaluation of editing of cccDNA, the cccDNA was enriched via Hirt extraction and ExoI/ExoIII nuclease treatment to remove rcDNA (relaxed circular DNA). Throughout the Examples provided herein, editing of cccDNA was evaluated using next generation sequencing completed using cccDNA enriched in this way.
as §2, §3, §4, §5

For data set [3], the system named is HBV genome in HEK293T cells transduced with a lentiviral vector. The data set can be described thus: Base editing efficiency in Hek293-lentiHBV system (PCR amplicons sequenced on MiSeq). In kind it is cell-based, Hepatitis B virus. The settings on record: for Average Editing Efficiency (%): average of 3, base editor Cas12b-ABE; for Average Editing Efficiency (%) / Editing Efficiency 1 (%) / Editing Efficiency 2 (%) / Editing Efficiency 3 (%): plasmid transfection, four days; for Editing Efficiency 1 (%): replicate 1, base editor Cas12b-ABE; for Editing Efficiency 2 (%): replicate 2, base editor Cas12b-ABE; for Editing Efficiency 3 (%): replicate 3, base editor Cas12b-ABE. Also on record: Editing Efficiency 2 (%): concentration or dose not given beside the values.

As to `C=C1[C@H](CO)[C@@H](O)C[C@@H]1n1cnc2c(=O)[nH]c(N)nc21` [Entecavir], in the data set on Hepatitis B virus [1] (Entecavir 0.03 mg/kg orally for two weeks then discontinued, LNP 2 mg/kg), the “HBV rebound (serum HBV DNA)” value is reported as “rebounds”. Further, in the data set on Hepatitis B virus [1] (Entecavir orally daily days 1-14, base editing reagents day 1 or days 1 and 14), the “reduction in serum levels of HBV DNA at day 21” value is reported as “approximately 2 log”.

B1: PolyA-NGC2: guide RNA SEQ ID NO: 5500 (nucleic acid)
guide: TTTATAAGGGTCGATGTCCAGTTTTAGAGCTAGAAATAGCAAGTTAAAATAAGGCTAGTCCGTTATCAACTTGAAAAAGTGGCACCGAGTCGGTGCTTTT
modifications: chemistry not fully specified
Consider B1, for which, in the data set with Hepatitis B virus [2], the “HBV markers relative to the no treatment control (cccDNA editing and/or viral replication)” value is listed as “robust reduction in all HBV markers” and the “efficacy in reduction of HbeAg” value is 90%. Further, in the data set with HBV cccDNA, the “cccDNA Editing in PHH A > G %” value was 62.9% and the editing result was “high editing”.

B2: cas12b-4: guide RNA SEQ ID NO: 379 (nucleic acid)
guide: mG*mU*mU*rCrUrGrUrCrUrUrUrUrGrGrUrCrArGrGrArCrArArCrCrGrUrCrUrArGrCrUrArUrArArGrUrGrCrUrGrCrArGrGrGrUrGrUrGrArGrArArArCrUrCrCrUrArUrUrGrCrUrGrGrArCrGrArUrGrUrCrUrCrUrUrArCrGrArGrGrCrArUrUrArGrCrArCrArCrArArGrArArUrCrCrUrCrArCrArArUrArCrC
Regarding B2, in data set [3], the “Average Editing Efficiency (%)” value was 20.00%, the “Editing Efficiency 1 (%)” value turned out to be 14.70%, the “Editing Efficiency 2 (%)” value was 26.37% and the “Editing Efficiency 3 (%)” value is reported as 18.93%.

B3: PolyA-NGC1: guide RNA SEQ ID NO: 5499 (nucleic acid)
guide: GACCCTTATAAAGAATTTGGGTTTTAGAGCTAGAAATAGCAAGTTAAAATAAGGCTAGTCCGTTATCAACTTGAAAAAGTGGCACCGAGTCGGTGCTTTT
modifications: chemistry not fully specified
Turning to B3, in the data set with Hepatitis B virus [2], the “HBV markers relative to the no treatment control (cccDNA editing and/or viral replication)” value was “robust reduction in all HBV markers” and the “efficacy in reduction of HbeAg” value worked out at 90%. In the data set with HBV cccDNA, the “cccDNA Editing in PHH A > G %” value is listed as 60.4% and the editing result is “high editing”.

B4: ABE-133: guide RNA SEQ ID NO: 5516 (nucleic acid)
guide: GAAGATGAGGCATAGCAGCAGTTTTAGAGCTAGAAATAGCAAGTTAAAATAAGGCTAGTCCGTTATCAACTTGAAAAAGTGGCACCGAGTCGGTGCTTTT
modifications: chemistry not fully specified
B4: the “HBV markers relative to the no treatment control (cccDNA editing and/or viral replication)” value with Hepatitis B virus [2] is on record as “robust reduction in all HBV markers”. For the same molecule, in data set [3] (base editor VRQR-ABE), the “% Editing average” value is given as 65%. Moreover, the “cccDNA Editing in PHH A > G %” value with HBV cccDNA came out at 76.0%.

B5: cas12b-5: guide RNA SEQ ID NO: 380 (nucleic acid)
guide: mG*mU*mU*rCrUrGrUrCrUrUrUrUrGrGrUrCrArGrGrArCrArArCrCrGrUrCrUrArGrCrUrArUrArArGrUrGrCrUrGrCrArGrGrGrUrGrUrGrArGrArArArCrUrCrCrUrArUrUrGrCrUrGrGrArCrGrArUrGrUrCrUrCrUrUrArCrGrArGrGrCrArUrUrArGrCrArCrUrCrGrCrUrGrGrArUrGrUrGrUrCrUrGrCrGrGrC
On to B5, for which, in data set [3], the “Average Editing Efficiency (%)” value turned out to be 0.54%, the “Editing Efficiency 1 (%)” value is recorded as 0.12%, the “Editing Efficiency 2 (%)” value came out at 0.36% and the “Editing Efficiency 3 (%)” value is recorded as 1.14%.

B6: cas12b-11: guide RNA SEQ ID NO: 381 (nucleic acid)
guide: mG*mU*mU*rCrUrGrUrCrUrUrUrUrGrGrUrCrArGrGrArCrArArCrCrGrUrCrUrArGrCrUrArUrArArGrUrGrCrUrGrCrArGrGrGrUrGrUrGrArGrArArArCrUrCrCrUrArUrUrGrCrUrGrGrArCrGrArUrGrUrCrUrCrUrUrArCrGrArGrGrCrArUrUrArGrCrArCrCrArCrCrUrGrUrArUrUrCrCrCrArUrCrCrCrArU
As for B6, the “HBV markers relative to the no treatment control (cccDNA editing and/or viral replication)” value in the data set on Hepatitis B virus [2] is listed as “robust reduction in all HBV markers”. In data set [3], the “Average Editing Efficiency (%)” value came out at 58.03%, the “Editing Efficiency 1 (%)” value is 44.34%, the “Editing Efficiency 2 (%)” value is 60.28% and the “Editing Efficiency 3 (%)” value was 69.47%.

B7: cas12b-152: guide RNA SEQ ID NO: 5523 (nucleic acid)
guide: GUUCUGUCUUUUGGUCAGGACAACCGUCUAGCUAUAAGUGCUGCAGGGUGUGAGAAACUCCUAUUGCUGGACGAUGUCUCUUACGAGGCAUUAGCACAGAGAAGUCCACCACGAGUC
modifications: listed as RNA, chemistry not fully specified
With B7, in the data set with Hepatitis B virus [2], the “HBV markers relative to the no treatment control (cccDNA editing and/or viral replication)” value is “robust reduction in all HBV markers”. Further, the “% Editing average” value in data set [3] (base editor Cas12b-ABE) is on record as 54%.

B8: ABE-41: guide RNA SEQ ID NO: 5513 (nucleic acid)
guide: AGAAGATGAGGCATAGCAGCGTTTTAGAGCTAGAAATAGCAAGTTAAAATAAGGCTAGTCCGTTATCAACTTGAAAAAGTGGCACCGAGTCGGTGCTTTT
modifications: chemistry not fully specified
B8: the “HBV markers relative to the no treatment control (cccDNA editing and/or viral replication)” value in the data set with Hepatitis B virus [2] is “robust reduction in all HBV markers”. Besides, the “% Editing average” value in data set [3] (base editor Abe7.10) is given as 58%. In the data set on HBV cccDNA, the “cccDNA Editing in PHH A > G %” value came out at 56.0%.

The record behind these values is patent publication US20240294914A1, “COMPOSITIONS AND METHODS FOR TREATING HEPATITIS B VIRUS INFECTION” (priority 2021, published 2024).
